Measurements published in the nanobody polyreactivity screen of Harvey et al. (2022).

Experiment: yeast display, Sf9 membrane polyspecificity reagent, FACS + sequencing; frameworks hold sequencing errors
How it was run: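 Genes from sorted yeast were amplified by colony PCR, read by MiSeq 2 × 250 sequencing and filtered on CDR length. These cells carried a synthetic nanobody library in Saccharomyces cerevisiae BJ5465 and were sorted by FACS into low and high (top ~1%) gates on anti-HA and streptavidin fluorescence. Polyreactivity is labelled according to the gate of origin.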

Sequence	polyreactivity (PSR sort gate)
QVQLVESGGGLVQAGGSLRLSCAASGRIFRVYAMGWYRQAPGKERELVAAISSYGGSTYYADSVKGRFTISRDNAKNTVYLQMNSLIPEDTAVYYCAAESSPDGYFLSDYWGQGTQVTVSS	low polyreactivity
QVQLVESGGGLVQAGGSLRLSCAASGRIFRWYALGWYRQAPGKERELVAAISSRGGSTYYADSVKGRFTISRDNAKNTVYLQLNSLKPEDTAVYYCAADTSGWQPRYDYWGQGTQVTVSS	high polyreactivity
QVQLVESGGGLVQAGGSLRLSCAASGRIFRWYAMGWYRQAPGKERELVAAISYSGGSTYYADSVKGRFTISRDNAKNTVYLQMNSLKPEDTAVYYCAAATYYKFDYWGQGTQVTVSW	high polyreactivity
QVQLVESGGGLVQAGGSLRLSCAASGRIFRWYAMGWYRQAPGKERELVAGINYGGGRTYYADSVKGRFTISRDNAKNTVYLQMNSLNPEDTAVYYCAAGISGHYYWGQGTQVTVSS	high polyreactivity
QVQLVESGGGLVQAGGSLRLSCAASGRIFRWYAMGWYRQAPGKERELVATISSSGRTNYADSVKGRFTISRDNAKNTVYLQMNSLKPEETAVYYCNADGGDWFGYVGMDYWGQGTQVTVSS	high polyreactivity
QVQLVESGGGLVQAGGSLRLSCAASGRIFRYNAMGWYRQAPGKEREFVAAITSSGAGTHYADSVKGRFTISRDNAKNTVYLQMNSLKPEDTAVYYCNARGYYSKNSYDYYTGDYWGQGTQVTVSS	high polyreactivity
QVQLVESGGGLVQAGGSLRLSCAASGRIFRYNAMGWYRQAPGKERELVAAISSVGSTNYADSVKGRFTISRDNAKNTVYLQMNSLKPEDTAVYYCNAVVRSYVKTYRYYKVDYWGQGTQVTVSS	high polyreactivity
QVQLVESGGGLVQAGGSLRLSCAASGRIFRYNVMGWYRQPPGKERELVAAIRWSGGSTYYADSVKGRFTISRDNAKNTVYLQMNSLKPEDTAVYYCNTVGRWRGYDYWGQGTQVTVSS	high polyreactivity
QVQLVESGGGLVQAGGSLRLSCAASGRIFRYYAMGWSRQAPGKERELVAAISSSGGSTYYADSVKGRFTISRDNAKNTVYLQMNSLKPEDTAVYYCAGVFRLGVGYEYWGQGTQVTVSS	high polyreactivity
QVQLVESGGGLVQAGGSLRLSCAASGRIFRYYAMGWYRQAPGKERELDAAISRSGGSTYYADSVKGRFTISRDNAKNTVYLQMNSLKPEDTAVYYCAARVYRYGAMDYWGQGTQVTVSS	high polyreactivity
QVQLVESGGGLVQAGGSLRLSCAASGRIFRYYAMGWYRQAPGKERELVAAISSGGRTYYADSVKGRFPISRDNEKNTVYLQMNSLKPEDTAVYYCNTYTYAGYNYWGQGTQVTVSS	high polyreactivity
QVQLVESGGGLVQAGGSLRLSCAASGRIFRYYAMGWYRQAPGKERELVAAISSGVGNTYYADSVKGRFTISRDNAKNTVYVQMNSLKPEDTAVFYCKAKWRKFGTVRYDYWGQGTQVTVSS	high polyreactivity
QVQLVESGGGLVQAGGSLRLSCAASGRIFRYYAMGWYRQAPGKERELVAAISSSGGSTYYADSVKGRFTISRDNAKNTVYLQMNSLKPEDTAVYYCNTVGSVGKKRDYWGQGTQVTVSS	high polyreactivity
QVQLVESGGGLVQAGGSLRLSCAASGRIFRYYAMGWYRQAPGKERELVAAITRGGSTNYADSVKGRFTISRDNAKNTVYLQMNSLIPEDTAVYYCNKYPYFVYGDYGYWGQGTQVTVSS	high polyreactivity
QVQLVESGGGLVQAGGSLRLSCAASGRIFRYYAMGWYRQAPGKERELVAAITWSGGSTYYADSVKGRFTISRDNAKNTVYLQMNSLKPEDTAVYYCNAKSYQPFHGDYWGQGTQVTVSS	low polyreactivity
QVQLVESGGGLVQAGGSLRLSCAASGRIFRYYAMGWYRQAPGKERELVADIWSDGSTYYADSVKGRFTISRDNAKNTVYLQMNSLKPEDTAVYYCNAARTYYWYSAKFDYWGQGTQVTVSS	high polyreactivity
QVQLVESGGGLVQAGGSLRLSCAASGRIFRYYAMGWYRQAPGKERELVATISGRGGSTYYADSVKGRFTISRDNAKNTVYREMNSLKPEDTAVYYCYTVSTRYIYDYWGQGTQVTVSS	high polyreactivity
QVQLVESGGGLVQAGGSLRLSCAASGRIFRYYAMGWYSQAPGQDRELVAAISWSGGSTYYADSVKGRFTISRDKAKNTVYLQMHSLKPEDTAVYYCNKVPLGLEGDYWGQGTQVTVSS	high polyreactivity
QVQLVESGGGLVQAGGSLRLSCAASGRIFRYYDMGWYRQAPGKERELVAAITSDGSTKDADSVKGRFTISRDNAKNTVYLQMNSLKQEDTAVYYCNAEVLPTWYSPQLDYWGQGTQVTVSS	low polyreactivity
QVQLVESGGGLVQAGGSLRLSCAASGRIFRYYTMGWYRQAPGKERELVAAITARGTRTYYADSVKGRFTISRDNAKNTVYLQMNSLKPEETSVYYCAADRYIYFAPSMDYWGQGTQVTVSS	high polyreactivity
QVQLVESGGGLVQAGGSLRLSCAASGRIFRYYTRGWYRQAPGKERELVAAISSSGGRTYYADSVKGRFTISRDYANNTVYLQMNSLKPEDTAVYYCNTDGPTWYPTYDYWGQGTQVTVSS	high polyreactivity
QVQLVESGGGLVQAGGSLRLSCAASGRIFRYYVMGWNRQAPGKERELVATITSGGSTNYADSVKGRFTISRDNAKNTVYLQMNSLKPEDTAVYYCAAEKVSGQGEMDYWGQGTQVTVSS	low polyreactivity

Sequence	polyreactivity (PSR sort gate)
QVQLVESGGGLVQAGGSLRLSCAASGRIFRYYVMGWYRQAPGKERELVATITSGGSTNYADSVKGRFTISRDNAKNTVYLQMYSLKPEDTAVYYCARGTSTCTYYWYGYWGQGTQVTVSS	low polyreactivity
QVQLVESGGGLVQAGGSLRLSCAASGRIFSAYAMGWFRQAPGKERELLAAISKRGGRTYYADSVKGRFTISRDNATNTVYLQTNSLKPEDTSVYYCNKRYLDGHDLDYCGQGTQVTVSS	high polyreactivity
QVQLVESGGGLVQAGGSLRLSCAASGRIFSDYAMGRYRQAPGKDRELVATITTGDSTNYADSVKGRFTISRDNAKNTVYLQMNSLKPEDTAVYYCNADRFADYDYWGQGTQVTVSS	low polyreactivity
QVQLVESGGGLVQAGGSLRLSCAASGRIFSFNAMGWYRQAPGKERELVASGGSTYADSVKGRFTISRDNAKNTVYLQMNSLKPEDTAVYYCAADPFYYFPSPFDYWGQGTQVTVSS	low polyreactivity
QVQLVESGGGLVQAGGSLRLSCAASGRIFSFNTMGWYRQAPGKERELVAAITSSSARTYYADSVKGRFTISRDNAKNTVYLQMNSLKPEDTAVYYCAADSTLSRYDYWGQGTQVTVSS	high polyreactivity
QVQLVESGGGLVQAGGSLRLSCAASGRIFSFYAMGWYRQSPGKERELVATISDGGATTYYADSVKGRFTISRDNAKNTVYLQMNSLKPEDTAVYYCAADKRGRPGLPDYDSWGQGTQVTVSS	low polyreactivity
QVQLVESGGGLVQAGGSLRLSCAASGRIFSFYVMGWYRQEPGKERELVAAIDNGGGSTYYADSVKGRFTISRDNAKNTVYLQMNSLKPEDTAVYYCAAEVYDSDSEYYYWGQGTQVTVSS	low polyreactivity
QVQLVESGGGLVQAGGSLRLSCAASGRIFSGNTMGWYRPAPGKERELVAAISKSGGRTYYADSVKGRFPISRVNAKNTVYLQMNSLKPEDTAVYYCNADYRSHYLYDYWGQGTQVTVSS	low polyreactivity
QVQLVESGGGLVQAGGSLRLSCAASGRIFSGNTMGWYRQAPGKERELVAAISKSGGRTYYADSVKGRFTISRDNAKNTVYLQMNSLKPEDTAVYYCNADYRSHYLYDYWGQGTQVTVSS	low polyreactivity
QVQLVESGGGLVQAGGSLRLSCAASGRIFSGNVMGWYRQAPGKERELVAAISRSGGSTYYADSVKGRFTISRDNAKNTVYLQMNSLKPEDTAVYYCADVPTSNSFRSSFYYWGHGTQVTVSS	high polyreactivity
QVQLVESGGGLVQAGGSLRLSCAASGRIFSGYAIGWYRQAPGKERELVAAITSGGSTNYADSVKGRFTISRDNAKNTVYLQMNSLKPEDTAVYYCAADYREVSTTAYYYWGQGTQVTVSS	low polyreactivity
QVQLVESGGGLVQAGGSLRLSCAASGRIFSGYAMGWYRQAPGKERELVAAISQRGGSTTYADSVKGRFTISRDNAKKTVDLQMNSLKPEDTAVYDCAKRYTYPSGYDYWGQGTQVTVSS	low polyreactivity
QVQLVESGGGLVQAGGSLRLSCAASGRIFSGYVMGWYRQAPGKERELVAAISRSGGSTYYADSVKGRFTISRDNAKNTVYLQMNSLKPEDTAVYYCNAYYRYFRSIYDSWGQGTQVTVSS	high polyreactivity
QVQLVESGGGLVQAGGSLRLSCAASGRIFSGYVMGWYRQAPGKERELVAVISRSGGSTYYADSVKGRFTISRDNAKNTVYLLMNSLKPEDTAVYYCAAKHIDGSRGYVYWGQGTQVTVSS	low polyreactivity
QVQLVESGGGLVQAGGSLRLSCAASGRIFSHKAMGWYRQAPGKERELVAGISSGGGTTYADSVKGRFTISRDNAKNTVYLQMNSLKPEDTAVYYCNKQDQPVGRSGYPYGYDYWGQGTQVTVSS	low polyreactivity
QVQLVESGGGLVQAGGSLRLSCAASGRIFSHYAMGWYRQAPGKERELVAAITSDGSTNYADSVKGRFTISRDNAKNTVYLQMNSLKPEHTAVYYCAKYVHIPYYYYLFGSYDYWGQGTQLTVSS	low polyreactivity
QVQLVESGGGLVQAGGSLRLSCAASGRIFSKNAMGWYRPAPGKERELVAAISSGGSTYDADSVKGRFTISRDNAKNTVYLQMNSLKPEDTAVYYCAARKRGYYWGQGTQVTVSS	high polyreactivity
QVQLVESGGGLVQAGGSLRLSCAASGRIFSKYAMGWYRQAPGKARELVAAISTSTGSTYYADSVKGRFTISRDNAKNTVYLQMNSLKPEDTAVYYCAAVGSRWFSQTWRDYWGQGTQVTVSS	high polyreactivity
QVQLVESGGGLVQAGGSLRLSCAASGRIFSKYAMGWYRQAPGKDRELVAAISWSGGRTYYADSVKGRFTISRDNAKNTVYLQMNSLKPEDAALYYCAASFYTGYDYWGQGTQVTVSS	high polyreactivity
QVQLVESGGGLVQAGGSLRLSCAASGRIFSLNAMGWYRQAPGKERELVAGIRKRGGSTYYADSVKGRFTISRDNAKNTVYLQMNSLKPEDTAVYYCAAQPALTYRFYYWGQGTQVTVSS	high polyreactivity
QVQLVESGGGLVQAGGSLRLSCAASGRIFSLNAMGWYRQAPGKERELVAGIRKRGGSTYYADSVKGRFTISRDNAKNTVYLQMNSLKPEHTAVYYCAAQPALTYRFYYWGQGTQVTVSS	high polyreactivity
